This note sets out measurements from publication doi:10.1101/2021.11.28.470279.

In this series the target is ΔAPE1 E96Q/D210N (catalytically dead, crystallization construct) (Homo sapiens (human), UniProt P27695 44-318, C138A;E96Q;D210N). The series is described as follows: crystal structure.
Chain of ΔAPE1 E96Q/D210N (catalytically dead, crystallization construct) (P27695 44-318 E96Q/C138A/D210N): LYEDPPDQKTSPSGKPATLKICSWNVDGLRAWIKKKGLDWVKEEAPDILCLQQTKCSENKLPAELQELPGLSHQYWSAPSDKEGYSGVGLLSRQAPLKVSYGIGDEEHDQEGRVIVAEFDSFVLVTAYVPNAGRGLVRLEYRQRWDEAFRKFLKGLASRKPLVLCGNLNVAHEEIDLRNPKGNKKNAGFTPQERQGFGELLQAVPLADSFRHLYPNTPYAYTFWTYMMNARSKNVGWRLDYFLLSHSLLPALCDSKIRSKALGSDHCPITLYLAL

B1: 21-mer nicked 3'-8oxoG opposite C (crystal) (dsDNA)
DNA 1: GGATCCGTCGACCGCATCAGC
DNA 2: GCTGATGCGG
DNA 3: TCGACGGATCC
modifications: 8-oxoG at 3' end of upstream strand (strand 2, written G); 5'-phosphate on downstream strand (strand 3)
As for B1, the binding result is recorded as “binds”.
